{"source": "paper PMC12577854", "about": "“CsUGT89A2 enhances tea plant resistance to Toxoptera aurantia by mediating flavonoid glycosides biosynthesis” (Horticulture Research, 2025)", "assay_in_all_cases": "HPLC assay of 7-O-glucoside formation", "format_in_all_cases": "biochemical, Camellia sinensis", "conditions_in_all_cases": "2.5 mM UDP-glucose, pH 8.0, 40°C", "key": {"[1]": {"tested_on": "T1, O=c1cc(-c2ccc(O)c(O)c2)oc2cc(O)cc(O)c12", "T1 construct": "Ni-TED purified (methods say amylose resin)"}, "[2]": {"tested_on": "T2, O=c1cc(-c2ccc(O)cc2)oc2cc(O)cc(O)c12", "T2 construct": "Ni-TED purified (methods say amylose resin)"}, "[3]": {"tested_on": "T3, O=c1c(O)c(-c2ccc(O)cc2)oc2cc(O)cc(O)c12", "T3 construct": "Ni-TED purified (methods say amylose resin)"}, "[4]": {"tested_on": "T4, O=c1c(O)c(-c2ccc(O)c(O)c2)oc2cc(O)cc(O)c12", "T4 construct": "Ni-TED purified (methods say amylose resin)"}}}
{"substance": "rCsUGT89A2 (CsUGT89A2, LOC114303213) (Camellia sinensis var. sinensis)", "values": [{"measurement": "Km", "setting": "[1]", "result": 76.4, "unit": "µM"}, {"measurement": "Km", "setting": "[2]", "result": 46.3, "unit": "µM"}, {"measurement": "Km", "setting": "[3]", "result": 164.5, "unit": "µM"}, {"measurement": "Km", "setting": "[4]", "result": 106.0, "unit": "µM"}]}
